{"source": "paper PMC10925418", "about": "“Survivin Mediates Mitotic Onset in HeLa Cells Through Activation of the Cdk1-Cdc25B Axis” (Research Square, 2024)", "binders": {"B1": {"name": "His-Cdk1 1–85 (domain or fragment)", "chain": "not shown", "notes": "Cdk1, human, residues 1-85, deletion mutant made by PCR; source: E. coli BL21, purified (Ni2+-charged agarose); not shown: His-tag, N-terminal, kept"}, "B2": {"name": "GST-Survivin 1-70 (domain or fragment, UniProt O15392 1-70, looked up)", "chain": "MGAPTLPPAWQPFLKDHRISTFKNWPFLEGCACTPERMAEAGFIHCPTENEPDLAQCFFCFKELEGWEPD", "notes": "Survivin residues 1-70, deletion mutant made by PCR; also called Survivin N-terminus (first 70 amino acids); source: E. coli BL21, purified (glutathione agarose); not shown: GST, N-terminal, kept"}, "B3": {"name": "SUR A55-D70 peptide (peptide)", "peptide": "AQCFFCFKELEGWEPD", "modifications": "not fully specified (N-terminus); cysteine pairing not given here", "notes": "Survivin residues Ala55 through Asp70; the methods describe only one form of the peptide (biotin and tat at the N-terminus); also called Survivin peptide; Survivin A55-D70; source: synthetic peptide (f-BOC chemistry, HPLC purified; Peptron or W. M. Keck Biotechnology Research Center, Yale)"}, "B4": {"name": "His-Cdk1 36–85 (domain or fragment)", "chain": "not shown", "notes": "Cdk1, human, residues 36-85, deletion mutant made by PCR; source: E. coli BL21, purified (Ni2+-charged agarose); not shown: His-tag, N-terminal, kept"}}, "conditions_in_all_cases": "both partners purified", "key": {"GST-Survivin": {"target": "T1, GST-Survivin (UniProt O15392 1-142)", "T1 construct": "Survivin; the printed peptide 55-70 fits human Survivin; also called recombinant Survivin; pGST-Survivin product; source: E. coli BL21, purified (glutathione agarose); not shown: GST, N-terminal, kept", "assay": "pull-down; GST pull-down: His-tagged recombinant proteins mixed with GST, GST-Survivin or GST-Survivin mutants; Western blotting"}, "His-Cdk1": {"target": "T2, His-Cdk1 (human, UniProt P06493 1-297)", "T2 construct": "Cdk1, human, full-length cDNA BC014563 subcloned into pRSETa; also called recombinant His-Cdk1; Cdk1 protein kinase; source: E. coli BL21, purified (Ni2+-charged agarose); not shown: His-tag, N-terminal, kept", "T2 sequence (P06493 whole entry)": "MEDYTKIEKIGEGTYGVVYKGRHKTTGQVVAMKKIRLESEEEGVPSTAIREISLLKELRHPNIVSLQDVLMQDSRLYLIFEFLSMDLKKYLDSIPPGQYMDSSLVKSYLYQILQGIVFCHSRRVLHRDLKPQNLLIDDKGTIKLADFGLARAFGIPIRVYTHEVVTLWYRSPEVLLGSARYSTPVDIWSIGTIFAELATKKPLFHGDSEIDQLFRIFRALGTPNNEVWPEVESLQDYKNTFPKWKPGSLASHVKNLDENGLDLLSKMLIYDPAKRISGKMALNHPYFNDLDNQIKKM", "assay": "pull-down; GST pull-down: His-tagged recombinant proteins mixed with GST, GST-Survivin or GST-Survivin mutants; Western blotting"}, "His-Cdk1 1–183": {"target": "T3, His-Cdk1 1–183 (human, UniProt P06493 1-183)", "T3 construct": "source: E. coli BL21, purified (Ni2+-charged agarose); not shown: His-tag, N-terminal, kept", "T3 sequence (P06493 1-183)": "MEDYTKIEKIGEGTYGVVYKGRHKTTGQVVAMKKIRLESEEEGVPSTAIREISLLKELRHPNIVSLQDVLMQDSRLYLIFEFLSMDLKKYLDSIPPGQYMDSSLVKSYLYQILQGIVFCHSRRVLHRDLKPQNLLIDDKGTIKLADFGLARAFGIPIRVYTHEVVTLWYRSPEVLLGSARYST", "assay": "pull-down; streptavidin-binding assay: 50 ug biotinylated peptide bound to streptavidin agarose, mixed with recombinant His-Cdk1 fragments; Western blotting"}, "His-Cdk1 1–85": {"target": "B1", "assay": "pull-down; streptavidin-binding assay: 50 ug biotinylated peptide bound to streptavidin agarose, mixed with recombinant His-Cdk1 fragments; Western blotting"}, "His-Cdk1 9–85": {"target": "T4, His-Cdk1 9–85 (human, UniProt P06493 9-85)", "T4 construct": "Cdk1, human, residues 9-85, deletion mutant made by PCR; source: E. coli BL21, purified (Ni2+-charged agarose); not shown: His-tag, N-terminal, kept", "T4 sequence (P06493 9-85)": "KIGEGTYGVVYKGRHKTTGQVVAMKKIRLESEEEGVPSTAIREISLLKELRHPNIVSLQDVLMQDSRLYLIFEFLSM", "assay": "pull-down; streptavidin-binding assay: 50 ug biotinylated peptide bound to streptavidin agarose, mixed with recombinant His-Cdk1 fragments; Western blotting"}, "SUR A55-D70 peptide": {"target": "B3", "assay": "pull-down; streptavidin-binding assay: 50 ug biotinylated peptide bound to streptavidin agarose, mixed with recombinant His-Cdk1 fragments; Western blotting"}}, "note": "Where no end group is shown, it is not given here.", "data": [{"binder": "B1", "values": [{"measurement": "binding result", "setting": "GST-Survivin", "value": "binds"}]}, {"binder": "B2", "values": [{"measurement": "binding result", "setting": "His-Cdk1", "value": "binds"}]}, {"binder": "B3", "values": [{"measurement": "binding result", "setting": "His-Cdk1 1–183", "value": "binds"}, {"measurement": "binding result", "setting": "His-Cdk1 1–85", "value": "binds"}, {"measurement": "binding result", "setting": "His-Cdk1 9–85", "value": "binds"}]}, {"binder": "B4", "values": [{"measurement": "binding result", "setting": "SUR A55-D70 peptide", "value": "binds"}]}]}
